Source: publication PMC8872419

Target: mutated SMN1 protein with T274YfsX32, myc-tagged (exogenous) (human) (UniProt Q16637)
Test: co-IP; lysate (1 mg) of HeLa cells 24 h after transfection, RIPA buffer without SDS; anti-myc-tag antibody on Dynabeads Protein A; washed three times; blots with anti-myc-tag and anti-SMN antibodies; band ratio End-SMN/Exo-SMN, in triplicate

ratio of End-SMN to Exo-SMN: 0.02
ratio of End-SMN/Exo-SMN, percent of wild type: 4%
Substance: endogenous FL-SMN1 and/or FL-SMN2 protein (endogenous SMN protein) (from UniProt Q16637 1-294) (natural protein)
